Laboratory results taken from doi:10.1101/2024.03.26.586676 (bioRxiv, 2024).
Residue numbers refer to the chain shown, from its start. Where two headings read alike, the source gives them in different places.

Experiments:
Hrp48-RRM12 [1] = target: T1, Hrp48-RRM12 (Drosophila melanogaster, UniProt P48809 1-173); test: ITC
T1 sequence: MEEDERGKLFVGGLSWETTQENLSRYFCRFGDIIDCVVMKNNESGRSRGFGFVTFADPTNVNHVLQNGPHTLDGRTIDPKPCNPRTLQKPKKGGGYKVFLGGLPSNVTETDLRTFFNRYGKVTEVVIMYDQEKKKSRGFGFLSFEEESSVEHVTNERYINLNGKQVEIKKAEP

Hrp48-RRM12 [2] = target: T1, Hrp48-RRM12; test: NMR
Hrp48-RRM12 [3] = target: T1, Hrp48-RRM12; test: EMSA
SEC-MALS = target: the molecule itself; test: SEC-MALS
Hrp48-RRM1 [4] = target: T2, Hrp48-RRM1 (Drosophila melanogaster, UniProt P48809 1-88); test: ITC
T2 sequence: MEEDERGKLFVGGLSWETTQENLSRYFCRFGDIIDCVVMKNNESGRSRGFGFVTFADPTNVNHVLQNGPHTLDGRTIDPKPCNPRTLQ

Hrp48-RRM2 [5] = target: T3, Hrp48-RRM2 (Drosophila melanogaster, UniProt P48809 89-173); test: NMR
T3 sequence: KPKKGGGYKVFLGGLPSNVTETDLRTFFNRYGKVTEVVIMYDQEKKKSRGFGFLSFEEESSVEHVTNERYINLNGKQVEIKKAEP

Hrp48-RRM1 [6] = target: T2, Hrp48-RRM1; test: ITC; remark: listed apart in the source
Hrp48-RRM12 [7] = target: T1, Hrp48-RRM12; test: NMR; remark: listed apart in the source
Hrp48-RRM1 [8] = target: T2, Hrp48-RRM1; test: NMR
[9] = target: T4, Hrp48-RRM12;Sxl-dRBD3;Unr-CSD12 (Drosophila melanogaster;Drosophila …, UniProt P48809;P19339;B7Z0E2 1-173;123-294;186-337, ||); test: SEC-MALS
T4 sequence 1: T1 sequence
T4 sequence 2: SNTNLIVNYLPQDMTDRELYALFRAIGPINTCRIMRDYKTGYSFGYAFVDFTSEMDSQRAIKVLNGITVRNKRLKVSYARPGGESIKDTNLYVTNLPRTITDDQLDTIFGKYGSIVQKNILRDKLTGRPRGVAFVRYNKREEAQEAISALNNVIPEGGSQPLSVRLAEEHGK
T4 sequence 3: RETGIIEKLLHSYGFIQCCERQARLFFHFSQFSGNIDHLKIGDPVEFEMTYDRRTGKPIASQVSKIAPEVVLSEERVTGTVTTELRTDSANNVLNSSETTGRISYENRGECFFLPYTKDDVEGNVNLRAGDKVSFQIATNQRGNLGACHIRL

Sxl-dRBD3;Unr-CSD12 [10] = target: T5, Sxl-dRBD3;Unr-CSD12 (Drosophila melanogaster;Drosophila …, UniProt P19339;B7Z0E2 123-294;186-337, |); test: SEC
T5 sequence 1: T4 sequence 2
T5 sequence 2: T4 sequence 3

Hrp48-RRM12 [11] = target: T1, Hrp48-RRM12; test: ITC; remark: listed apart in the source
Sxl-dRBD3;Unr-CSD12 [12] = target: T5, Sxl-dRBD3;Unr-CSD12; test: SEC-MALS
[13] = target: T4, Hrp48-RRM12;Sxl-dRBD3;Unr-CSD12; test: SEC-MALS; remark: listed apart in the source
Hrp48-RRM2 [14] = target: T3, Hrp48-RRM2; test: NMR; remark: listed apart in the source

B1: 10-mer-WT (ssRNA)
RNA: UAGGAUUAAG
Hrp48-RRM12 [1]
  Kd: 17.3 ± 2.9 nM

B2: 4-mer-3 (ssRNA)
RNA: UAGG
Hrp48-RRM12 [2]
  binding result: binds

B3: GG-30-mer-Cy5 (ssRNA)
RNA: UUUUUUUGAGCACGUGAAGGUAGGAUUAAG
Hrp48-RRM12 [3]
  binding result: binds

B4: Hrp48-RRM2 (residues 89-173) (domain or fragment, Drosophila melanogaster, UniProt P48809 89-173, looked up)
chain: T3 sequence
SEC-MALS
  stoichiometry N: 4

B5: 6-mer-4 (ssRNA)
RNA: AAGAAC
Hrp48-RRM1 [4]
  binding result: binds
Hrp48-RRM2 [5]
  binding result: binds

B6: 6-mer-2 (ssRNA)
RNA: UAGGAU
Hrp48-RRM1 [6]
  Kd: 8700 nM

B7: 4-mer-6 (ssRNA)
RNA: UAAG
Hrp48-RRM12 [7]
  binding result: binds

B8: 9-mer (P-element site) (ssRNA)
RNA: UAGGUUAAG
Hrp48-RRM12 [1]
  Kd: 14.8 ± 3.7 nM

B9: 6-mer-3 (ssRNA)
RNA: AUUAAG
Hrp48-RRM1 [8]
  binding result: binds
Hrp48-RRM2 [5]
  binding result: binds

B10: GG-30-mer (ssRNA)
RNA: B3 RNA
[9]
  binding result: binds
Sxl-dRBD3;Unr-CSD12 [10]
  binding result: binds
Hrp48-RRM12 [11]
  binding result: binds

B11: WT-30-mer (ssRNA)
RNA: B3 RNA with G19C, G20C
Sxl-dRBD3;Unr-CSD12 [12]
  binding result: binds
[13]
  binding result: binds

B12: 6-mer-1 (ssRNA)
RNA: AACCUA
Hrp48-RRM1 [6]
  Kd: 1300 nM
Hrp48-RRM2 [14]
  binding result: no binding
